Where two headings read alike, the source gives them in different places.
Legend:
[1] = Cardiac electrophysiology; conditions: non-clinical or clinical data
[2] = tested on: patients with newly diagnosed multiple myeloma eligible for ASCT; assay: CASSIOPEIA, adverse reactions and laboratory abnormalities
[3] = tested on: patients with relapsed or refractory multiple myeloma; assay: SIRIUS open-label monotherapy trial, efficacy; assay type: in vivo, human
Excerpt: (§1) Treatment continued until unacceptable toxicity or disease progression.
The median patient age was 63.5 years (range: 31 to 84 years), 49% were male and 79% were Caucasian. Patients had received a median of 5 prior lines of therapy. […] Prior therapies included bortezomib (99%), lenalidomide (99%), pomalidomide (63%) and carfilzomib (50%).

[4] = tested on: patients with relapsed or refractory multiple myeloma; assay: Study GEN501 open-label dose escalation monotherapy trial, efficacy; assay type: in vivo, human
Excerpt: as §1
Seventy-four percent of patients had received prior ASCT. Prior therapies included bortezomib (100%), lenalidomide (95%), pomalidomide (36%) and carfilzomib (19%).

[5] = Solution pH and storage of diluted solution; assay type: physicochemical
Excerpt: Prepare the solution for infusion using aseptic technique as follows: • Calculate the dose (mg), total volume (mL) of DARZALEX solution required and the number of DARZALEX vials needed based on patient actual body weight. • Check that the DARZALEX solution is colorless to pale yellow. […] Infusion bags/containers must be made of either polyvinylchloride (PVC), polypropylene (PP), polyethylene (PE) or polyolefin blend (PP+PE). Dilute under appropriate aseptic conditions. Discard any unused portion left in the vial. • Gently invert the bag/container to mix the solution. […] The diluted solution may develop very small, translucent to white proteinaceous particles, as daratumumab is a protein. […] (59° F.−77° F.) and in room light. Diluted solution may be kept at room temperature for a maximum of 15 hours (including infusion time). • If not used immediately, the diluted solution can be stored prior to administration for up to 24 hours at refrigerated conditions 2° C.−8° C. (36° F.−46° F.) and protected from light.
DARZALEX is supplied as a colorless to pale yellow preservative-free solution for intravenous infusion in single-dose vials. The pH is 5.5.

[6] = tested on: patients with multiple myeloma
[7] = molecular target: T1, CD38 on red blood cells (RBCs) (Homo sapiens, UniProt P28907); assay: Indirect Antiglobulin Test (Indirect Coombs test) interference
T1 construct: endogenous in cells; host or cells: red blood cells (reagent RBCs / donor RBCs in blood-bank testing)
Excerpt: Daratumumab binds to CD38 on red blood cells (RBCs) and results in a positive Indirect Antiglobulin Test (Indirect Coombs test). Daratumumab-mediated positive indirect antiglobulin test may persist for up to 6 months after the last daratumumab infusion. Daratumumab bound to RBCs masks detection of antibodies to minor antigens in the patient's serum [see References (15)]. The determination of a patient's ABO and Rh blood type are not impacted [see Drug Interactions (7.1)].
Daratumumab binds to CD38 on RBCs and interferes with compatibility testing, including antibody screening and cross matching. Daratumumab interference mitigation methods include treating reagent RBCs with dithiothreitol (DTT) to disrupt daratumumab binding [see References (15)] or genotyping. Since the Kell blood group system is also sensitive to DTT treatment, K-negative units should be supplied after ruling out or identifying alloantibodies using DTT-treated RBCs.

NK cells = assay: Pharmacodynamics, NK cells; assay type: in vivo, human; conditions: peripheral whole blood and bone marrow
Excerpt: NK cells express CD38 and are susceptible to daratumumab mediated cell lysis.

[8] = tested on: adult patients with relapsed and refractory multiple myeloma; assay: Monotherapy safety, three open-label clinical trials; assay type: in vivo, human
Excerpt: Serious adverse reactions were reported in 51 (33%) patients.

[9] = tested on: patients with multiple myeloma; assay: Immunogenicity, anti-daratumumab antibodies; assay type: in vivo, human
Excerpt: As with all therapeutic proteins, there is the potential for immunogenicity. The detection of antibody formation is highly dependent on the sensitivity and specificity of the assay. Additionally, the observed incidence of antibody (including neutralizing antibody) positivity in an assay may be influenced by several factors including assay methodology, sample handling, timing of sample collection, concomitant medications, and underlying disease. For these reasons, comparison of the incidence of antibodies to daratumumab in the studies described below with the incidence of antibodies in other studies or to other products may be misleading. […] One patient administered DARZALEX as combination therapy, developed transient neutralizing antibodies against daratumumab. However, this assay has limitations in detecting anti-daratumumab antibodies in the presence of high concentrations of daratumumab; therefore, the incidence of antibody development might not have been reliably determined.

[10] = Clinical pharmacokinetics; assay type: in vivo, human

In the case of “DARZALEX: immunoglobulin G1 kappa (IgG1κ) human monoclonal antibody against CD38 antigen; HC SEQ ID NO: 9, LC SEQ ID NO: 10”, the “potential to delay ventricular repolarization” value [1] is reported as “no evidence”, the “IRRs Grade 3 or 4” value ([2]; at re-initiation following ASCT) is reported as < 1% and the “incidence of IRRs” value ([2]; first infusion following ASCT, upon re-initiation) is reported as 11%. The “Overall response rate (ORR)” value ([3]; N = 106) was 29.2%, the “Partial response (PR)” value ([3]; in vivo) was 17.0% and the “Stringent complete response (sCR)” value ([3]; in vivo) was 2.8%. The “Very good partial response (VGPR)” value ([3]; in vivo) was 9.4%, the “median duration of response” value ([3]; in vivo) was 7.4 months and the “median time to response” value ([3]; in vivo) was 1 month. The “Complete response (CR)” value ([3]; number of patients) was 0, the “Overall response rate (ORR)” value ([3]; number of patients) was 31 and the “Partial response (PR)” value ([3]; number of patients) was 18. The “Stringent complete response (sCR)” value ([3]; number of patients) was 3, the “Very good partial response (VGPR)” value ([3]; number of patients) was 10 and the “CR, number of patients” value ([4]; 16 mg/kg, 42 patients) was 1. For the same substance, the Overall response rate ([4]; 16 mg/kg, 42 patients) was 36%, the “VGPR, number of patients” value ([4]; 16 mg/kg, 42 patients) was 3 and the “median duration of response” value ([4]; in vivo) was “not estimable”. For the same substance, the “median time to response” value ([4]; in vivo) was 1 month, the “time diluted solution can be stored prior to administration” value ([5]; refrigerated 2° C.−8° C., protected from light) was “up to 24 hours” and the “time diluted solution may be kept” value ([5]; room temperature, including infusion time) was ≤ 15 h. For the same substance, the pH ([5]; solution for intravenous infusion) was 5.5, the “incidence of any grade infusion reactions” value ([6]; Week 2 infusion) was 2% and the “Grade 3/4 infusion reaction” value ([6]; Week 2 or subsequent infusions) was “Less than 1%”. For the same substance, the “incidence of any grade infusion reactions” value ([6]; cumulatively, subsequent infusions) was 6%, the “incidence of any grade infusion reactions” value ([6]; first (16 mg/kg, Week 1) infusion) was 37% and the “incidence of infusion modification due to reactions” value ([6]; human, in vivo) was 36%. For the same substance, the “Hepatitis B virus reactivation” value ([6]; including fatal cases) was “less than 1%”, the “time of infusion reactions after completing DARZALEX” value ([6]; nearly all reactions, during infusion or within) was ≤ 4 h and the “time of infusion reactions after infusion” value ([6]; prior to the introduction of post-infusion medication) was “up to 48 hours”. For the same substance, the “patients who experienced an infusion reaction” value ([6]; share of all patients in clinical trials) was “approximately half”, the “Indirect Antiglobulin Test (Indirect Coombs test) result” value [7] was “positive” and the “persistence of positive indirect antiglobulin test after the last infusion” value [7] was “up to 6 months”. The “absolute counts and percentages of total NK cells and activated NK cells” value (NK cells) was “Decreases”, the “Anemia, laboratory abnormality” value ([8]; Any Grade) was 45% and the Arthralgia ([8]; Any Grade) was 17%. For the same substance, the Back pain ([8]; Any Grade) was 23%, the Chills ([8]; Any Grade) was 10% and the Constipation ([8]; Any Grade) was 15%. It also gave a Cough ([8]; Any Grade) of 21%, a Decreased appetite ([8]; Any Grade) of 15% and a Diarrhea ([8]; Any Grade) of 16%. The Dyspnea ([8]; Any Grade) was 15%, the Fatigue ([8]; Any Grade) was 39% and the Headache ([8]; Any Grade) was 12%. For the same substance, the Hypertension ([8]; Any Grade) was 10%, the Infusion reaction ([8]; Any Grade) was 48% and the “Lymphopenia, laboratory abnormality” value ([8]; Any Grade) was 72%. For the same substance, the Musculoskeletal chest pain ([8]; Any Grade) was 12%, the Nasal congestion ([8]; Any Grade) was 17% and the Nasopharyngitis ([8]; Any Grade) was 15%. The Nausea ([8]; Any Grade) was 27%, the “Neutropenia, laboratory abnormality” value ([8]; Any Grade) was 60% and the Pain in extremity ([8]; Any Grade) was 15%. For the same substance, the Pneumonia ([8]; Any Grade) was 11%, the Pyrexia ([8]; Any Grade) was 21% and the “Thrombocytopenia, laboratory abnormality” value ([8]; Any Grade) was 48%. The “Upper respiratory tract infection” value ([8]; Any Grade) was 20%, the Vomiting ([8]; Any Grade) was 14% and the “Anemia, laboratory abnormality” value ([8]; Grade 3) was 19%. It also gave an Arthralgia ([8]; Grade 3) of 0%, a Back pain ([8]; Grade 3) of 2% and a Chills ([8]; Grade 3) of 0%. It also gave a Constipation ([8]; Grade 3) of 0%, a Cough ([8]; Grade 3) of 0% and a Decreased appetite ([8]; Grade 3) of 1%. It also gave a Diarrhea ([8]; Grade 3) of 1%, a Dyspnea ([8]; Grade 3) of 1% and a Fatigue ([8]; Grade 3) of 2%. For the same substance, the Headache ([8]; Grade 3) was 1%, the Hypertension ([8]; Grade 3) was 5% and the Infusion reaction ([8]; Grade 3) was 3%. For the same substance, the “Lymphopenia, laboratory abnormality” value ([8]; Grade 3) was 30%, the Musculoskeletal chest pain ([8]; Grade 3) was 1% and the Nasal congestion ([8]; Grade 3) was 0%. The Nasopharyngitis ([8]; Grade 3) was 0%, the Nausea ([8]; Grade 3) was 0% and the “Neutropenia, laboratory abnormality” value ([8]; Grade 3) was 17%. It also gave a Pain in extremity ([8]; Grade 3) of 1%, a Pneumonia ([8]; Grade 3) of 6% and a Pyrexia ([8]; Grade 3) of 1%. The “Thrombocytopenia, laboratory abnormality” value ([8]; Grade 3) was 10%, the “Upper respiratory tract infection” value ([8]; Grade 3) was 1% and the Vomiting ([8]; Grade 3) was 0%. The “Anemia, laboratory abnormality” value ([8]; Grade 4) was 0%, the Arthralgia ([8]; Grade 4) was 0% and the Back pain ([8]; Grade 4) was 0%. For the same substance, the Chills ([8]; Grade 4) was 0%, the Constipation ([8]; Grade 4) was 0% and the Cough ([8]; Grade 4) was 0%. The Decreased appetite ([8]; Grade 4) was 0%, the Diarrhea ([8]; Grade 4) was 0% and the Dyspnea ([8]; Grade 4) was 0%. It also gave a Fatigue ([8]; Grade 4) of 0%, a Headache ([8]; Grade 4) of 0% and a Hypertension ([8]; Grade 4) of 0%. The Infusion reaction ([8]; Grade 4) was 0%, the “Lymphopenia, laboratory abnormality” value ([8]; Grade 4) was 10% and the Musculoskeletal chest pain ([8]; Grade 4) was 0%. The Nasal congestion ([8]; Grade 4) was 0%, the Nasopharyngitis ([8]; Grade 4) was 0% and the Nausea ([8]; Grade 4) was 0%. For the same substance, the “Neutropenia, laboratory abnormality” value ([8]; Grade 4) was 3%, the Pain in extremity ([8]; Grade 4) was 0% and the Pneumonia ([8]; Grade 4) was 0%. The Pyrexia ([8]; Grade 4) was 0%, the “Thrombocytopenia, laboratory abnormality” value ([8]; Grade 4) was 8% and the “Upper respiratory tract infection” value ([8]; Grade 4) was 0%. The Vomiting ([8]; Grade 4) was 0%, the serious adverse reactions ([8]; monotherapy 16 mg/kg, 156 patients) was 33% and the “patients tested positive for anti-daratumumab antibodies” value ([9]; 111 evaluable monotherapy patients) was “none”. For the same substance, the “patients tested positive for anti-daratumumab antibodies” value ([9]; of the 1,050 evaluable combination therapy patients) was 2, the “area under the concentration-time curve (AUC), dose dependence” value ([10]; 1 to 24 mg/kg monotherapy or 1 to 16 mg/kg combination therapy) was “increases more than proportionally” and the “drug-drug interactions between daratumumab and lenalidomide, pomalidomide, bortezomib and dexamethasone” value ([10]; clinical pharmacokinetic assessments) was “no clinically relevant drug-drug interactions”. For the same substance, the “terminal half-life compared with monotherapy” value ([10]; combination therapy) was “similar”, the volume of distribution ([10]; combination therapy) was 4.4 ± 1.5 L and the “trough serum concentration (Cmin), mean±SD” value ([10]; end of weekly dosing, monotherapy) was 573 ± 332 µg/mL. For the same substance, the “central volume of distribution and clearance with increasing body weight” value ([10]; human, in vivo) was “increased”, the “clearance with increasing dose and with multiple dosing” value ([10]; human, in vivo) was “decreased” and the “linear clearance, mean±SD” value ([10]; monotherapy) was 171.4 ± 95.3 mL/day. For the same substance, the “terminal half-life associated with linear clearance, mean±SD” value ([10]; monotherapy) was 18 ± 9 days, the volume of distribution ([10]; monotherapy) was 4.7 ± 1.3 L and the “differences in pharmacokinetics based on sex, age, mild and moderate hepatic impairment, or renal impairment” value ([10]; monotherapy or combination therapy) was “No clinically significant differences”. The “time to steady state” value ([10]; monotherapy, into the every 4-week dosing period (by the 21st infusion)) was “approximately 5 months”.
